The source of these data is patent US20050066381A1.

Data set [1] deals with PP1c (PP1cα), protein phosphatase 1 catalytic subunit. Description: PP1c pull-down from adenovirus-infected cardiomyocytes (I-1 + PKCα wt), I-1 Western blot, quantified.
The target is the same in data set [2]. Briefly: PP1c pull-down from adenovirus-infected cardiomyocytes (I-1 + PKCα dn), I-1 Western blot, quantified. A general note: A western blot detects proteins with antibodies after separation by electrophoresis.
The subject of data set [3] is recombinant wildtype inhibitor-1 isolated from E. coli.
Data set [4] has as its system recombinant Ser-67-Ala inhibitor-1 isolated from E. coli.

Sequence of PP1c (PP1cα), protein phosphatase 1 catalytic subunit (P62138 2-330): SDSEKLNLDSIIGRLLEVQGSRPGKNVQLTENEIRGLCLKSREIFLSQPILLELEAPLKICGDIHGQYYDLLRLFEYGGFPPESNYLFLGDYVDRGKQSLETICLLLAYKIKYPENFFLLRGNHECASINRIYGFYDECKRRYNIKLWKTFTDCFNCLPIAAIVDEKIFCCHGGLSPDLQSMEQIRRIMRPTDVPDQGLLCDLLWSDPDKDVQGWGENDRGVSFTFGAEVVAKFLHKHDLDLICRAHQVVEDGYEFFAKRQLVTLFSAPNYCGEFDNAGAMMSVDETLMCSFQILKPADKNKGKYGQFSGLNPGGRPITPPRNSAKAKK

With “Inhibitor-1 (I-1), expressed from adenovirus in neonatal rat cardiomyocytes”, the reduction of I-1 interaction with PP1c when wildtype PKCα is overexpressed in data set [1] is 50 % reduction. For the same substance, the increase of I-1/PP1c complex formation when dominant negative PKCα is expressed in data set [2] was more than 70 % increase.

Take “protein kinase C isolated from rabbit heart muscle”: the “in vitro phosphorylation with 32P-ATP, SDS-PAGE and quantification of radioactivity” value in data set [3] is given as “Wildtype I-1 protein was directly phosphorylated in vitro in a time-dependent manner at stoichiometric levels by PKC”. Besides, the “in vitro phosphorylation with 32P-ATP, relative to wildtype I-1” value in data set [4] is on record as “approximately 50% less phosphorylation by PKC compared with equal amounts of wildtype protein”.
